Here are results for one molecule from PMC8931120, “LC3B is an RNA-binding protein to trigger rapid mRNA degradation during autophagy”.

In series [1] the target is LC3B-R/Q (human, UniProt Q9GZQ8 1-120, R68Q;R69Q;R70Q). In words: EMSA; 1 mM Mg2+, 2 uM probe; EMSA: 40 mM Tris pH 8.0, 30 mM KCl, 1 mM MgCl2, 0.01% NP-40, 1 mM DTT, 30 C 1 h; FP: same buffer without NP-40, 100 nM RNA final (200 nM stock diluted 1:2), pro.
The target of series [2] is LC3B-WT (mature, cleaved by ATG4B) (human, UniProt Q9GZQ8 1-120). The series is described as above.

Regarding AAUAAAAAUAAAAAUAAA (ssRNA) [Cy5-AAUAAAx3], the binding result in series [1] is listed as “no binding”; in series [2], “binds”.
